Test results from publication PMC3097136.

B1: cold probe A (dsDNA)
DNA 1: ATCCAAAGGTCAATTGAAATCTCTTT
DNA 2: AAAGAGATTTCAATTGACCTTTGGAT
B2: probe A* (mutated NRBE) (dsDNA)
DNA 1: ATCCAAGCTCGAATTGAAATCTCTTT
DNA 2: AAAGAGATTTCAATTCGAGCTTGGAT
B3: probe A (nPE2 NRBE) (dsDNA)
DNA 1: ATCCAAAGGTCAATTGAAATCTCTTT
DNA 2: AAAGAGATTTCAATTGACCTTTGGAT
B4: cold probe A* (dsDNA)
DNA 1: ATCCAAGCTCGAATTGAAATCTCTTT
DNA 2: AAAGAGATTTCAATTCGAGCTTGGAT

Assays:
COUP-TFI (Nr2f1) [1] = biological target: T1, COUP-TFI (Nr2f1) (Mus musculus, UniProt Q60632 1-422); assay: competition
T1 sequence: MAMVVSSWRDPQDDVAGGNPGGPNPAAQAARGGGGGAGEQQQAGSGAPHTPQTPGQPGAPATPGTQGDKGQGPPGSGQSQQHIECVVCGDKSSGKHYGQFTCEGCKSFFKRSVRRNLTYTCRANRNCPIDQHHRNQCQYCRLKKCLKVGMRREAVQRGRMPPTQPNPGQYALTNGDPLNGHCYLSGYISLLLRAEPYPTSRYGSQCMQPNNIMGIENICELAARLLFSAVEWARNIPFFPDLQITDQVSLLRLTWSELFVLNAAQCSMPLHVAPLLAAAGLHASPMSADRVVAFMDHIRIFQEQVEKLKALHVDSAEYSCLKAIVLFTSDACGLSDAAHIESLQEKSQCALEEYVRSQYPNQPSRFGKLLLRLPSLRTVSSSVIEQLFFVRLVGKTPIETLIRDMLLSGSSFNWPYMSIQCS

[2] = biological target: tESR1 (estrogen receptor alpha DNA-binding domain) (Homo sapiens, UniProt P03372 185-250); assay: EMSA
Sequence of tESR1 (estrogen receptor alpha DNA-binding domain) (P03372 185-250): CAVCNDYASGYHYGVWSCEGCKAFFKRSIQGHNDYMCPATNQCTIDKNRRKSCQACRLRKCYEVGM

COUP-TFI (Nr2f1) [3] = biological target: T1, COUP-TFI (Nr2f1); assay: EMSA
COUP-TFII (Nr2f2) = biological target: T2, COUP-TFII (Nr2f2) (Mus musculus, UniProt P43135 1-414); assay: EMSA
T2 sequence: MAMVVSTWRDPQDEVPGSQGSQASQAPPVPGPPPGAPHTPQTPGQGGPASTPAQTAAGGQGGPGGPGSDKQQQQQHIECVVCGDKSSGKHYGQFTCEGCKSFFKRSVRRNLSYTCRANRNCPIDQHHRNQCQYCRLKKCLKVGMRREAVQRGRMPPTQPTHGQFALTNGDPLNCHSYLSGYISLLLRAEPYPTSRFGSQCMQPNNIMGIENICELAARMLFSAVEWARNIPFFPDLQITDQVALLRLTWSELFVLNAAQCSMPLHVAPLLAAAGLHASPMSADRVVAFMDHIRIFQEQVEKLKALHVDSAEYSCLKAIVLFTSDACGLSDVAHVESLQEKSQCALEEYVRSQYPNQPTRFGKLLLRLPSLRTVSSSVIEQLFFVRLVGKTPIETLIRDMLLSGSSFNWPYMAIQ

COUP-TFI (Nr2f1) [4] = biological target: T1, COUP-TFI (Nr2f1); assay: competition; remark: listed apart in the source

Binder | binding result (COUP-TFI (Nr2f1) [1]) | binding result [2] | binding result (COUP-TFI (Nr2f1) [3]) | binding result (COUP-TFII (Nr2f2)) | binding result (COUP-TFI (Nr2f1) [4])
B1 | binds | – | – | – | –
B2 | – | no binding | no binding | – | –
B3 | – | binds | binds | binds | –
B4 | – | – | – | – | no binding
